Source: paper PMC2120307

Legend:
[1] = target: recombinant purified neutrophil adhesion inhibitor NIF (rNIF) of the hookworm Ancylostoma caninum (Ancylostoma caninum); experiment: ELISA
[2] = target: recombinant purified neutrophil adhesion inhibitor NIF (rNIF) of the hookworm Ancylostoma caninum (Ancylostoma caninum); experiment: flow cytometry on cells

recombinant CD11b A-domain (r11bA), wild type (domain or fragment)
IC50 [1]: 1 nM | IC50 [2]: 1 nM
